Results taken from US20200157519A1 (IMMUNWORK, published 2020).

Key:
[1] = target: T1, crosslinked human fibrin treated by human factor XIIIa (human, UniProt P02671 36-629; P02675 45-491; P02679 27-437, crosslinked by factor XIIIa); assay: ELISA after storage at 4 C for 3 or 6 days, HRP-protein L
T1 construct: Coated human fibrinogen treated with thrombin and 0.55 ug factor XIIIa (Zedira) per well; also called crosslinked fibrin
T1 sequence (looked up) 1: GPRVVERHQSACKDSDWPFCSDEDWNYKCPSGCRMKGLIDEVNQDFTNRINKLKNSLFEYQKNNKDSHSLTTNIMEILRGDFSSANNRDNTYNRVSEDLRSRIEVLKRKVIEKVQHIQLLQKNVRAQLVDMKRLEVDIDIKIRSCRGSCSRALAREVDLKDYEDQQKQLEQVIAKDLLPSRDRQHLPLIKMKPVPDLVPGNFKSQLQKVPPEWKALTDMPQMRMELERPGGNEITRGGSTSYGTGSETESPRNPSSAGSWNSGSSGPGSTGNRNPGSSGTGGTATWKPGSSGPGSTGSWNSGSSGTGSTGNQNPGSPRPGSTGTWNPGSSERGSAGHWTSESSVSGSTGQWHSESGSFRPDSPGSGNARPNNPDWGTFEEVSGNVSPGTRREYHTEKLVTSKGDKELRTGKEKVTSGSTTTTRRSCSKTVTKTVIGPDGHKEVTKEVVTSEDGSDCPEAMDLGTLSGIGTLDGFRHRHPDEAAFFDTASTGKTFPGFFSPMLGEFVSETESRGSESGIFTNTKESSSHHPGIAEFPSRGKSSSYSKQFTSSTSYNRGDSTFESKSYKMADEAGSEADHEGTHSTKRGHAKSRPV
T1 sequence (looked up) 2: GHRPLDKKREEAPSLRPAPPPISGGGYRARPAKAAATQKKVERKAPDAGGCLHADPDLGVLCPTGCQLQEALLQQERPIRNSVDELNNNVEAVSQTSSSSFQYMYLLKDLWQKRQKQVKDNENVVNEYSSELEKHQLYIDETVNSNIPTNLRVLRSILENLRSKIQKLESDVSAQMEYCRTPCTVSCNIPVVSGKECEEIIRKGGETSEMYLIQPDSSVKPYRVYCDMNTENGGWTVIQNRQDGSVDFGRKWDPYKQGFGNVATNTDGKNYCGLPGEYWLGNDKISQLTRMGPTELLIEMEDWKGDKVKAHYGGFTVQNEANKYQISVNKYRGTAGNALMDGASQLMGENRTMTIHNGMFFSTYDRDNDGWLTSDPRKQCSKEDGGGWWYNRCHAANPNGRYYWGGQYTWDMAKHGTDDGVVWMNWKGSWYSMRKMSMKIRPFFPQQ
T1 sequence (looked up) 3: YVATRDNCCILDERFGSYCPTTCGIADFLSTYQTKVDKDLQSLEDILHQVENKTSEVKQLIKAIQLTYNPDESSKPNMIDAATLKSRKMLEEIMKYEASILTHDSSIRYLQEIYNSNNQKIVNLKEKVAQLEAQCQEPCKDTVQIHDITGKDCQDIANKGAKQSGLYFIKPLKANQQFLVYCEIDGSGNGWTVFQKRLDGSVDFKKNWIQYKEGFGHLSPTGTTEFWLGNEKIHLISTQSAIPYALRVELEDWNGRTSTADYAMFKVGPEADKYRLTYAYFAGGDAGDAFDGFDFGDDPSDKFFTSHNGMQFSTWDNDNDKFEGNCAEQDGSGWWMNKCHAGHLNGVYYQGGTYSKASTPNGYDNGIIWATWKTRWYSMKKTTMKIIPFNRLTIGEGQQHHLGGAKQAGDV
Method: (§1) To evaluate the stability of reteplase-(3D5 scFv) after storage, the reteplase-(3D5 scFv) was stored at 4° C. for 3, 6 and 30 days, and then SDS-PAGE and ELISA analysis were performed.
(§2) 96-well polystyrene microplates were coated with human fibrinogen (Sigma) (20 μg/mL) in PBS buffer (100 μL/well). After overnight incubation at 4° C., the coated wells were washed with PBS buffer. To induce the cross-linking of human fibrin, coated wells was incubated at 37° C. for 1 hour with human α-thrombin (Sigma) at a final concentration of 1 U/mL in TBS buffer with 2 mM CaCl₂ and 7 mM L-cystine (Merck). After blocking the wells with a blocking buffer (5% non-fat dry milk/PBS), 100 μL of reteplase-(3D5-scFv) at a final concentration of 0.1, 1 and 10 μg/mL were added to each well and incubate at room temperature for 1 hour. Thereafter, the plates were washed three times, and HRP-conjugated protein L diluted to 1/5000 was added to the wells and incubated for 1 hour at room temperature. The wells were washed three times and added with 100 μL of 3,3′,5,5′-Tetramethylbenzidine (TMB) substrate buffer. 5 minutes later, the color development was stopped with 1 M HCl. The optical density (OD) was measured at 450 nm using a microplate reader (Molecular Devices) and the data were processed using Graph Pad Prism software. […]

[2] = target: T2, human fibrin (human fibrinogen coated on the plate and treated with thrombin) (human, UniProt P02671 36-629; P02675 45-491; P02679 27-437); assay: as above
T2 construct: Made on the plate: coated human fibrinogen (Sigma) treated with 1.0 U/mL thrombin, CaCl2 and L-cysteine
T2 sequence (looked up) 1: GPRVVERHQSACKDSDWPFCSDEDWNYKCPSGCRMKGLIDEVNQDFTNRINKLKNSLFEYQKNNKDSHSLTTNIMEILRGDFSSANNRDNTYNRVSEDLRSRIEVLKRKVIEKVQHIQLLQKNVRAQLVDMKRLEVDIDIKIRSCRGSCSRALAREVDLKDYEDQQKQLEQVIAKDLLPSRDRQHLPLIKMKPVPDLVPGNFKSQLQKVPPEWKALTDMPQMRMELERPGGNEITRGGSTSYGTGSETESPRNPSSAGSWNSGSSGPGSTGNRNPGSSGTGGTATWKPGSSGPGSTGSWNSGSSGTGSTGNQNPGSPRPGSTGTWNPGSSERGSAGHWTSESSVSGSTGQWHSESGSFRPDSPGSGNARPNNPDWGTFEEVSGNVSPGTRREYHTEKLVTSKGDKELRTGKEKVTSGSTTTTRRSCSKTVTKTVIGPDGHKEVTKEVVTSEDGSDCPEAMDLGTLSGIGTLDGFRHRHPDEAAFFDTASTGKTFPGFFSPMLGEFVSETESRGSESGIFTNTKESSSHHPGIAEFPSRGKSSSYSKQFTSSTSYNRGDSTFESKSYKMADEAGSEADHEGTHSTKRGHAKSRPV
T2 sequence (looked up) 2: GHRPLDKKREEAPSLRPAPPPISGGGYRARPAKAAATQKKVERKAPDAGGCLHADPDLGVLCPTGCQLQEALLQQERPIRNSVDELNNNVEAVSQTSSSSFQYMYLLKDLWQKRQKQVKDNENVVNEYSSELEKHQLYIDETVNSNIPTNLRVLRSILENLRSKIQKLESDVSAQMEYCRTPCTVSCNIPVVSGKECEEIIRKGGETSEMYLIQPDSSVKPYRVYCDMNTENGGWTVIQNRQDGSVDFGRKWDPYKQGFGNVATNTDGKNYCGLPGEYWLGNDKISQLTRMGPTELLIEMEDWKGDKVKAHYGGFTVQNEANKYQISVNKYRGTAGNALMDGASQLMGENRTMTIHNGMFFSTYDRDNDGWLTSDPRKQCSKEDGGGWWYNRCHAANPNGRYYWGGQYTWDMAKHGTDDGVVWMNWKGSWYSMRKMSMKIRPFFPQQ
T2 sequence (looked up) 3: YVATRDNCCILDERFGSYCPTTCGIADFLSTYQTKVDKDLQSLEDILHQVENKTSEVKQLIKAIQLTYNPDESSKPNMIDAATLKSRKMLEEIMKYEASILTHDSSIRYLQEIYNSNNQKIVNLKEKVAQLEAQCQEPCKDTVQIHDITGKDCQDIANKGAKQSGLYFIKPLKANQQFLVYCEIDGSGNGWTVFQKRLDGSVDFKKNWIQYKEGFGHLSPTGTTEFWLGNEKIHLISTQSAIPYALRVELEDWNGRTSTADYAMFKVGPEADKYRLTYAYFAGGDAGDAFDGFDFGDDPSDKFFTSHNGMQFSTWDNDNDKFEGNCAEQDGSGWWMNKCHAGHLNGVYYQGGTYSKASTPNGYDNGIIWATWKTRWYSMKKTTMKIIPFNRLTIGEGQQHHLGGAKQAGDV
Method: as §1, §2

binding result [1]: binds
binding result [2]: binds
B1: recombinant reteplase-(3D5 VL-218-VH scFv α fibrin) protein (other)
chain: SYQGNSDCYFGNGSAYRGTHSLTESGASCLPWNSMILIGKVYTAQNPSAQALGLGKHNYCRNPDGDAKPWCHVLKNRRLTWEYCDVPSCSTCGLRQYSQPQFRIKGGLFADIASHPWQAAIFAKHRRSPGERFLCGGILISSCWILSAAHCFQERFPPHHLTVILGRTYRVVPGEEEQKFEVEKYIVHKEFDDDTYDNDIALLQLKSDSSRCAQESSVVRTVCLPPADLQLPDWTECELSGYGKHEALSPFYSERLKEAHVRLYPSSRCTSQHLLNRTVTDNMLCAGDTRSGGPQANLHDACQGDSGGPLVCLNDGRMTLVGIISWGLGCGQKDVPGVYTKVTNYLDWIRDNMRPASGGGGSGGGGSGGGGSDIQMTQSPSSLSASVGDRVTITCRASQDVSNNVAWYQQKPGKAPKLLIFWSPWLYSGVPSRFSGSGSGTDFTLTISSLQPEDFATYYCQQGWDSPVTFGQGTKVEIKRGSTSGSGKPGSGEGSTKGEVQLVESGGGLVQPGGSLRLSCAASGFTISDFGIHWVRQAPGKGLEWVASIWPSGGYTYYADSVKGRFTISADTSKNTAYLQMNSLRAEDTAVYYCARSWFYSWYDYWGQGTLVTVSS
notes: Fusion: reteplase, flexible linker, 3D5 VL, 218 linker, 3D5 VH; also called reteplase-(3D5 scFv); reteplase-(3D5-scFv)
